According to publication PMC8213764:
Several values for one entry are separate records, joined by “and”; a condition that tells them apart may be missing. Equal entries are not always repeated.

Target: Human intelectin-1 (ITLN1) of human ileal lysates, genotype at residue 109 not told for the sentence (human (endogenous in ileum)) (UniProt Q8WWA0)
Test: non-reducing SDS-PAGE immunoblot; human ileal lysates (150 mM NaCl, 1% Triton X-100, 0.5% sodium deoxycholate, 0.1% SDS, 50 mM Tris pH 8.0), heated at 95 °C for 30 min without 2-mercaptoethanol, gradient SDS-PAGE (4-20%), immunoblot; oligomers stable under denaturing conditions

Q: With “Human intelectin-1 (ITLN1) of human ileal lysates, genotype at residue 109 not told for the sentence (from UniProt Q8WWA0 19-298) (natural protein)” as the substance, how does the stoichiometry N read?
A: Its stoichiometry N is 3 and 6.
